Experimental data reported in the NTF2 design screens of Basanta et al. (2020).

experiment: protease stability score; higher = more stable; yeast display proteolysis, trypsin and chymotrypsin;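 further: relative to predicted unfolded state with 0 unfolded-like and 1 meaning tenfold more protease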

| Sequence | protease stability score |
| --- | --- |
| RDEDEVVDHIARLIVEAWRTGDEDWLKKMADPNVKQHIHIDGKTEINHGREEMIHQLERLHRKLGVDHHHLKSSTVIGDKIKIHMEERIGDFSIFVHVEFIVINGRMKEIRISIERE | 0.931 |
| SEEEKEIKEILERLIRSLLTGDEQELAKMADPNVRFNFQVGNKKYTLHGREHLRRHITFVFEYLGFDHITIQDSHYQGDKMTVHVELRVNGRRHEIREHWLVVDGRIKEVHVEIH | 2.32 |
| DDYEKDDKHFLNVFLHMLETGDWEKLEKLADPRVRQDVDGVEYHGMEEAVEVWHRLRHKFKGLTLREVTIHDIRTIDGKIDLDVEFHFDFNGREISRRVIIIVDKINGRWELKSMKEK | 0.074 |
| DEDKELAIRMIRLLMHALHTGDEDLLDELLDPNTKVDVDGQDLVGREQFLRDLRHIRIEIKDSHIHDVRVQGDKVRSHSYINGRREYDGVRLETEFRVLFIIRKVNGKWIFKSIHSL | 1.3 |
| RDIRELTLMMTKLIRKTDKTGDPRIAHELADPHYRFDFDGVEYHGREIVQHWMEKYPNVRFKVRHVDIVGDKARIEGTDNVDGQEIDTEYRVSKVDGRWHLEEIIFR | 0.487 |
| SEEKRDSHQAIHLFIKNRVTGNWKDLYKNVDPHARLEIGDKHFHGRELFVRLMLELGVDHFDIESVDIQGDFIHIKGQIDVNGRTLDVELVAWKYNGRWYEHSVIIK | 1.16 |
| DERTEFLERMSEHLTHVWHTGNEELWNRLADPRARFIEFVDGKKNHHHGMEVASNRIKKWRKDLGIDHVRLKEERVQGNKVELHLQVDINGVEQTVEIYNSIVDGRFESLEVNIHTR | 0.074 |
| DEKEELVEYFWEVFLKSLRTGNWHEFVKMFDPDAKSHINGVHSIGRDHIATLILREHEEIRYTEIRERHIEVQGDKIHVHTEVDMFVGDKRIRTERHIHITIVNGRIKSMRVEIR | 0.958 |
| DEERENIEKALRLLEHFNKTGNEEDINRLMDPHARSHINGKDVHGREEVVRMLRELGVERIEVEDLEIERSKQVDGRIEIHVHTVVNFNGRHTEFRVEIIAVKVNGKWIMRSVIFE | 1.56 |
| DRRQEELRRMAEIWIHNELTGNEDEFRKLADPNVRFHLHVNGRVLSSHGMETLVKLFRELLEEWRIKEIHIHDMHIQGDKVHLEGRRRGTIGDKEDIYEVEIHVVIVNGKMKEITVIIK | 1.51 |
| DEKTEHERELSERLLKAILTGDEDLFKELADPNVRIISEIDGRKDESHGWTAWHRIMQSLGFNVMRIDHHELINGVQYVESTLDINGVRRKTHLIIRIINGKVKEVRFSID | 1.88 |
| SDEMEEYEDFMKRVLEALETGDFREIRHLFDPDVKIHIDGRDIVGRESYTEHVRKWREDLGFDHIHLKIHDVKLFDGQIHVDARLEIRIGDKRDSHNVEFRLHKVDGQWLVRRVHVH | 1.6 |
| DERERLLLEWARKFMENLITGNEELLKEMHDPHYRSHIGDKDLVGREVHHEFWEKHFRHWRIEKFDVRDYHTQGDKARLVVRIVIDVDGRRIDTEIHIHYDIIDGQLRLVTLQYE | 1.5 |
| SEVNKHVEEISKLMVKFLLTGNEDLHKSLADPNYYSDVNGRHVIGRHHVEELWHLFLNEIRIDNIHIEDMKIQGEKAHIQGRIIGTVNGKHDELHATMIVVVIDGRIHSLKVEWR | 1 |
| SEEEEAEREFWEEFLRTSRTGDEELFEELIDPNVKIDINGRDLHGMEEALDTFRELRIKDIKVKHVEEQGDKIILDGRVDGIFDGKYDRVEVTFFVLKIDGRWVYHSIRLE | 1.13 |
| SEDEKVYLKLVEDWIRIWRTGDEDMAEKLADPNVKIIIGDKSTHGREEWTRVVRELRTTEFDAHSITVVDGVVELDGRSRGDINGVEMNSHFTFILYIVDGRLKSQEIEVH | 2.03 |
| DQEEREDRKILKLLVELWRTGNEEVLEHLLDPNVKMRLEFEGREDSAHGRESMIEMLRRVWKVLGIKHERLESVHVFDGVVIITMRLSVDGREQDIQLLFFVYDGRIKSIVIRVRDR | 1.45 |
| DEDEEEVIKFFQEFLRDELTGDWHEVHRMLDPHARLDINGKHFVGREDVTEFFKKLVNELRIHDVHIKDVRIIGEKASIDTSVDGEVNGRKRHFETRIIILKIDGQWFLHEVHMR | 1.47 |
| DHWEELIERALDFHRSLLRTGDPEVLERQADPNAKFVVGDKTLHGRESVSDWMNRVKNIQIHMRDLHVIDGKIEMHVQMHYDGRTSHTRLIADKVDGRWIYRSVSVE | 0.69 |
| SEWEEISRKISRDWTEWLETGDFETFMNYVDPNARYRQGDKDLHGMETLHRYIYHMRMHIRIRRIDHQGDYILIDGELELRQGDKTHRFESIIYIIVIDGKLRRFEIRER | 0.733 |
| DEEHEWAQLVIQLFFEALHTGDEKTLHELMDPEVKVNVDGRELHGREEVMEWFEELIRQYKNAKIHLHIHRVEYVGNKVIIRGELHFRYGDKEERIDRILHVLKVDGRWLIREIEHR | 1.51 |
| SEERKELKDIADEIFERHLTGDWKTFLRLADPNVRLQVNGKDIHGREEVVRWLNEIRYHHLTIHDRTVVDGVVISDVEEDGQVNGQKSRYRVHYVFVVVDGRFKSIHVTIT | 1.3 |
| DEDEHMRRIAYRLMWEVWHTGNFEELISLVDPHARVDIDGVELHGRENFTHELHERLRRMGVETQFRLRKVESYNGVVHIHTELEITIDGRNHKIDFIFYAHKINGRWRMKSEEYR | 1.8 |
| SHWEEDARRFNEIFITHFMTGDWHHLERMLDPHTRAHINGVNTVGREEVSRLVTELFEELGAKHHRIHDFRIQGDKVDTHHHLDVNGRNNHFIIHVKKINGKWRVESIEMTVI | 1.22 |
| NEEHEVLERVVELFMEILDTGNERLSRELVDPHVRVIIGDKELHGREQVARFHKELHERVDHWEIHIRRIEFQGDKLHMDFELRNDYNGVRITTDLIILVKKVNGVWKLRAREVR | 0.271 |
